This is an account of results in PMC10478084, “Use of Epivolve phage display to generate a monoclonal antibody with opsonic activity directed against a subdominant epitope on extracellular loop 4 of Treponema pallidum BamA (TP0326)” (Frontiers in Immunology, 2023).

The target in experiment [1] is T1, Tp BamA β-barrel (TP0326) (Treponema pallidum subsp. pallidum, …, UniProt O83346).
Target sequence in this assay (O83346 434-837): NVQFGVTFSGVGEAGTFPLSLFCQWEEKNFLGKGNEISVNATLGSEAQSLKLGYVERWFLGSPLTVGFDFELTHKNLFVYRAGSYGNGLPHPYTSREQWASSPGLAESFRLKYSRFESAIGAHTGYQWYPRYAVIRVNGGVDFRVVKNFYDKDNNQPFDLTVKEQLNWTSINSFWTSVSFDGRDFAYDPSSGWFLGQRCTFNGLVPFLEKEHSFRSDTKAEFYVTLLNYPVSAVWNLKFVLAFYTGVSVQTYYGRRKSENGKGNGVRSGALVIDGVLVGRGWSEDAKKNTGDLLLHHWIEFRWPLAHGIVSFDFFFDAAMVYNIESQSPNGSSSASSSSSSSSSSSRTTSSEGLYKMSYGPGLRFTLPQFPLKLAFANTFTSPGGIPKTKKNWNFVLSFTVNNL
Experiment [2] has as its target T2, BamA ECL4 peptide S2, native (Treponema pallidum subsp. pallidum, …).
T2 chain: Biotin-RVVKNFYDKDNNQPFDL

Experiment [3] has as its target T1, Tp BamA β-barrel (TP0326). Kind of experiment: immunoblot; 200 to 1 ng of PfTrx^BamA/ECL4 or of BamA β-barrel (in 8M urea, Laemmli buffer) resolved by SDS-PAGE, transferred to nitrocellulose, probed with mAb at 4 μg/ml. The settings on record: both partners purified.
Target sequence in this assay (O83346 whole entry, looked up): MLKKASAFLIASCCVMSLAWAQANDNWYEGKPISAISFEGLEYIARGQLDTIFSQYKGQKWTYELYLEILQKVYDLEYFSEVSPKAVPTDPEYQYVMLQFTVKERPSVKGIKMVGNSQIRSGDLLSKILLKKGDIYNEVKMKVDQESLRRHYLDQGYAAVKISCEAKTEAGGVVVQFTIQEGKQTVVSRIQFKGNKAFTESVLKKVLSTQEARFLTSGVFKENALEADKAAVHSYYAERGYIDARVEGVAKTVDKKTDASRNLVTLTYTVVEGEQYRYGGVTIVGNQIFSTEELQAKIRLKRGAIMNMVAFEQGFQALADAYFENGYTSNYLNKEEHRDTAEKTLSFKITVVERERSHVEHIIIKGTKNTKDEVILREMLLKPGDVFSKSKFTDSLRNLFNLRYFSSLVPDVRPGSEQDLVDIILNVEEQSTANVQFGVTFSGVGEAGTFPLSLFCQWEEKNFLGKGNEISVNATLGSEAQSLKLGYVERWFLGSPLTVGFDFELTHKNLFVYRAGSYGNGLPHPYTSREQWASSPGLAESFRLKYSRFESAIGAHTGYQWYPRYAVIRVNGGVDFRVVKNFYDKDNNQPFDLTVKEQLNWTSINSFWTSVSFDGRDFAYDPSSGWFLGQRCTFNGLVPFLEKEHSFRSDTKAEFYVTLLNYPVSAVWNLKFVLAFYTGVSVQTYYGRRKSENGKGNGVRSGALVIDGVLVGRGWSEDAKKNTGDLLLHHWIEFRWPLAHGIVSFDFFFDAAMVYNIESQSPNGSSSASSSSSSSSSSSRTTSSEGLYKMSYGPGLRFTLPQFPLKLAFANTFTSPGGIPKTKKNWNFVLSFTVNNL

Positions count from the first letter of the chain named. Where two headings read alike, the source gives them in different places. No end group written: not given here. *: point of attachment. Biotin = O=C1N[C@H]2[C@H](CS[C@H]2CCCCC(=O)*)N1

B1: IGX7128 (antibody, V domains shown)
VH: EVQLVQSGADVKKPGASLTISCQASGYTFTDYWISWVRQKPGKGLEWMGAIAPSTSKTEYGPSFQGHVTISADRSTATAYLQWRSLEASDTAMYYCVRQSAQTDSWGPGTLVTVSS
VL: SYELTQPPSVSVSPGQTARITCSGDALPKKYAYWYQQKSGQAPVLVIYEDRKRYSGIPERFSGSSSGTMATLTISGAQVEDEADYYCYSKAAKGNYMVFGGGTKLTVL
In the case of B1, the binding result in experiment [1] and in experiment [2] was “binds” in each case.

B2: mAb IGX7140 (antibody, V domains shown)
VH: B1 VH with F29L, A52S, S54A, T55N, K57R, E59S, I70F, S100G, S105R
VL: B1 VL with S13P, R51M, Y54P, M69T, A92F, K93D, M97F
notes: heavy-chain variable region from the Epivolve scFv; mouse IgG2 heavy-chain constant region; light-chain variable region LC2 (as the light chain of m2); mouse light-chain constant domain; Mouse IgG2 with variable regions from the Epivolve scFv; also called IXG7140; source: HEK293-E, transfected (pTT5), purified from supernatant (Protein A)
Regarding B2, the binding result in experiment [3] was “binds”.

B3: IGX7134 (antibody, V domains shown)
VH: B1 VH with D10V, I34F, H67L, Y80N, S100G, Q102H
VL: B1 VL
As to B3, the binding result in experiment [1] and in experiment [2] was “binds” each time.

B4: mAb IGX7137 (antibody, V domains shown)
VH: B1 VH with A24T, F29L, A52S, S54A, T55N, K57R, E59S, I70F, S100G, S105R
VL: B1 VL with S13P, R51M, Y54P, M69T, A92F, K93D, M97F
notes: heavy-chain variable region from the Epivolve scFv; mouse IgG2 heavy-chain constant region; light-chain variable region LC2 (shared with IGX7140); mouse light-chain constant domain; Mouse IgG2 with variable regions from the Epivolve scFv; source: HEK293-E, transfected (pTT5), purified from supernatant (Protein A)
On to B4, for which the binding result in experiment [3] is listed as “binds”.

B5: mAb IGX7141 (antibody, V domains shown)
VH: B1 VH with A52S, S54A, T55N, K57R, E59S, I70F, S100G
VL: B1 VL with R51M, Y54P, A92S, K93D, M97F
notes: heavy-chain variable region from the Epivolve scFv; mouse IgG2 heavy-chain constant region; light-chain variable region LC3; mouse light-chain constant domain; Mouse IgG2 with variable regions selected from a human scFv phage library (Epivolve) and matured by error-prone PCR; source: HEK293-E, transfected (pTT5), purified from supernatant (Protein A)
Turning to B5, the binding result in experiment [3] is recorded as “binds”.
